By IC50 is commonly meant the midpoint of a concentration-inhibition curve. As usually defined, the Kd is the equilibrium constant for the complex coming apart.

Data set [1] concerns the target T1, Angiopoietin-2 (Ang2) (Homo sapiens, UniProt O15123 O15123:19-496). The data set is described as follows: competition; blocks Ang2-Tie2. As to conditions: tags: His tag, R&D Systems 623-AN; label: 5'-biotin.
Experimental: (§4) Ang2-bound Tie2 and anti-Ang2 aptamers were partitioned by magnetic separation, and the Ang2-bound Tie2 were subsequently labeled via a fluorescent anti-human antibody. The fraction of Ang2-bound receptor was quantified by flow cytometry (BD Accuri C6 Plus). Raw binding data were corrected for nonspecific background binding and normalized to the fluorescence intensity from the sample with 1 nM Tie2 but without anti-Ang2 aptamer competition. The fraction of bound receptor was plotted as a function of anti-Ang2 aptamer concentration and a non-linear curve-fitting algorithm (dose-response inhibition) was used to extract IC₅₀ values from the data (FIG. 4C).
The target of data set [2] is T2, VEGF-121 (VEGFA isoform 121) (Homo sapiens, UniProt P15692 SEQ:1-121). The data set is described as follows: flow. The settings on record: chain copies: 2 (inferred).
In data set [3] the target is T1, Angiopoietin-2 (Ang2). In words: flow. The settings on record: tags: His tag, R&D Systems 623-AN.
Another data set has as its target Angiopoietin-1 (Ang1) (Homo sapiens, UniProt Q15389 Q15389:16-498). The data set is described as follows: flow; does not recognize human Ang1. As to conditions: tags: R&D Systems 923-AN; label: biotin.
In data set [4] the target is Angiopoietin-2 (Ang2) (Mus musculus, UniProt O35608 O35608:19-496). In words: flow; PBSMCT, 37 C. The settings on record: tags: R&D Systems 7186-AN; label: biotin. As for the experimental part:
(§1) Various mutations and truncated variants of a representative anti-Ang2 aptamer (AMS0525) were obtained and their binding affinity to Ang2 were measured using magnetic bead partitioning. Biotinylated anti-Ang2 aptamers were conjugated to the 1 μm streptavidin-coated MyOne Streptavidin Cl magnetic beads (Thermo Fisher Scientific, 65002). Binding assays were performed by incubating fixed concentration of aptamer (0.01 nM) and Ang2 protein at concentrations ranging from 10⁻¹² to 10⁻⁸ M in PBSMCT buffer (DPBS, pH 7.2 with 2.5 mM MgCl₂, 1 mM CaCl₂) and 0.01% TWEEN-20) at 37° C. for 90 minutes. Bound target protein was partitioned by magnetic separation and subsequently labeled via fluorescent anti-His-tag antibody. The fraction of anti-Ang2 aptamer bound was quantified by flow cytometry (BD Accuri C6 Plus). Raw binding data were corrected for nonspecific background binding of target protein to empty magnetic beads. The fraction of bound anti-Ang2 aptamer was plotted as a function of protein concentration and a non-linear curve-fitting algorithm (Langmuir one-site binding model) was used to extract equilibrium binding constants (KD values) from the data (FIG. 4A).

The target in data set [5] is T1, Angiopoietin-2 (Ang2). The data set is described as follows: flow; PBSMCT, 37 C. The settings on record: tags: His tag, R&D Systems 623-AN; label: biotin. As for the experimental part:
as §1

In data set [6] the target is T1, Angiopoietin-2 (Ang2). The data set is described as follows: competition; blocks Ang2-Tie2 binding; PBSMCT, 37 C. As to conditions: tags: His tag, R&D Systems 623-AN; label: biotin.
Experimental: as §4
The target of data set [7] is T2, VEGF-121 (VEGFA isoform 121). In words: flow; PBSMCT, 37 C. The settings on record: chain copies: 2 (inferred); label: biotin; stem-loop with bulges. As for the experimental part: (§2) Truncated and modified variants of the anti-VEGF aptamers of the present disclosure were prepared by LGC Biosearch Technologies (Novato, Calif.), and their binding affinity to corresponding targets were examined. Briefly, the equilibrium binding constants of the enriched libraries were measured using magnetic bead partitioning. Biotinylated anti-VEGF aptamers were conjugated to the 1 μm streptavidin-coated MyOne Streptavidin Cl magnetic beads (Thermo Fisher Scientific, 65002). Binding assays were performed by incubating fixed concentration of anti-VEGF aptamer (0.01 nM) and target protein at concentrations ranging from 10⁻¹² to 10⁻⁸ M in PBSMCT buffer (DPBS, pH 7.2 with 2.5 mM MgCl₂, 1 mM CaCl₂) and 0.01% TWEEN-20) at 37° C. for 90 minutes. Bound target protein was partitioned by magnetic separation and subsequently labeled via fluorescent anti-VEGF or anti-His-tag antibody. The fraction of anti-VEGF aptamer bound was quantified by flow cytometry (BD Accuri C6 Plus). Raw binding data were corrected for nonspecific background binding of target protein to empty magnetic beads. The fraction of bound anti-VEGF aptamer was plotted as a function of protein concentration and a non-linear curve-fitting algorithm (Langmuir one-site binding model) was used to extract equilibrium binding constants (KD values) from the data (FIG. 1).

The target of data set [8] is T3, VEGF-165 (VEGFA isoform 165) (Homo sapiens).
T3 chain: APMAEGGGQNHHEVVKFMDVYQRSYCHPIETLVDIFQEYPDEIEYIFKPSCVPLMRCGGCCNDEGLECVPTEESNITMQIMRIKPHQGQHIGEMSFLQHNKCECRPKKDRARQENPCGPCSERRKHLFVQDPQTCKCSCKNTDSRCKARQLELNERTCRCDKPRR
The data set is described as follows: flow; PBSMCT, 37 C. As to conditions: chain copies: 2 (inferred); label: biotin; stem-loop with bulges. As for the experimental part:
as §2

Data set [9] has as its target T2, VEGF-121 (VEGFA isoform 121). In words: competition; blocks VEGF-R1 and VEGF-R2 binding; PBSMCT, 37 C. As to conditions: chain copies: 2 (inferred); label: biotin; stem-loop with bulges. As for the experimental part:
(§3) Three different recombinant VEGF receptors (two VEGF-R1 and one VEGF-R2) were tested (R&D Systems, 3516-FL, 321-FL, and 357-KD). […] VEGF-bound receptors and anti-VEGF aptamers were partitioned by magnetic separation, and the VEGF-bound VEGF receptors were subsequently labeled via a fluorescent anti-human antibody. The fraction of VEGF-bound receptor was quantified by flow cytometry (BD Accuri C6 Plus). Raw binding data were corrected for nonspecific background binding and normalized to the fluorescence intensity from the sample with 1 nM VEGF receptor but without anti-VEGF aptamer competition. The fraction of bound receptor was plotted as a function of anti-VEGF aptamer concentration and a non-linear curve-fitting algorithm (dose-response inhibition) was used to extract IC₅₀ values from the data (FIG. 2).

The target of data set [10] is T3, VEGF-165 (VEGFA isoform 165). The data set is described as above. The settings on record: chain copies: 2 (inferred); label: biotin; stem-loop with bulges. As for the experimental part: as §3
Data set [11] has as its target T2, VEGF-121 (VEGFA isoform 121). In words: flow; PBSMCT, 37 C; Table 7 gives a different value. The settings on record: chain copies: 2 (inferred); label: biotin; stem-loop with bulges. As for the experimental part: as §2
Data set [12] deals with T3, VEGF-165 (VEGFA isoform 165). The data set is described as above. As to conditions: chain copies: 2 (inferred); label: biotin; stem-loop with bulges. As for the experimental part:
as §2

Data set [13] addresses T2, VEGF-121 (VEGFA isoform 121). The data set is described as follows: flow; PBSMCT, 37 C; Table 6 gives a different value. The settings on record: chain copies: 2 (inferred); label: biotin; stem-loop with bulges. As for the experimental part: as §2
The target in data set [14] is T3, VEGF-165 (VEGFA isoform 165). Described as above. The settings on record: chain copies: 2 (inferred); label: biotin; stem-loop with bulges. As for the experimental part:
as §2

T1 sequence (O15123 19-496, one chain of several): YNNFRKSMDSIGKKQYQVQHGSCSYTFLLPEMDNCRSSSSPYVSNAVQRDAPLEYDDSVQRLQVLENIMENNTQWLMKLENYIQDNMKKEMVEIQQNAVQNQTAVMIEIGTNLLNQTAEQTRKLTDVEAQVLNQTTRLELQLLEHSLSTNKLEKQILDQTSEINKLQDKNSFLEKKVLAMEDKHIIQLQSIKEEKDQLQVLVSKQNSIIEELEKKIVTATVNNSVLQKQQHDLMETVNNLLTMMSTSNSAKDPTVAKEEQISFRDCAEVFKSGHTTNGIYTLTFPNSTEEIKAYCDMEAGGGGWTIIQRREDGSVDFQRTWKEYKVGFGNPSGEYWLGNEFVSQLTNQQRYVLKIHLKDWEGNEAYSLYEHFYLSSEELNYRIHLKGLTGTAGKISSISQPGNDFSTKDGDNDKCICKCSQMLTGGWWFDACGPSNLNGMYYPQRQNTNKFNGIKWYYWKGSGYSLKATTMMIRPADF
Chain of Angiopoietin-2 (Ang2) (Mus musculus, UniProt O35608 O35608:19-496) (O35608 19-496, one chain of several): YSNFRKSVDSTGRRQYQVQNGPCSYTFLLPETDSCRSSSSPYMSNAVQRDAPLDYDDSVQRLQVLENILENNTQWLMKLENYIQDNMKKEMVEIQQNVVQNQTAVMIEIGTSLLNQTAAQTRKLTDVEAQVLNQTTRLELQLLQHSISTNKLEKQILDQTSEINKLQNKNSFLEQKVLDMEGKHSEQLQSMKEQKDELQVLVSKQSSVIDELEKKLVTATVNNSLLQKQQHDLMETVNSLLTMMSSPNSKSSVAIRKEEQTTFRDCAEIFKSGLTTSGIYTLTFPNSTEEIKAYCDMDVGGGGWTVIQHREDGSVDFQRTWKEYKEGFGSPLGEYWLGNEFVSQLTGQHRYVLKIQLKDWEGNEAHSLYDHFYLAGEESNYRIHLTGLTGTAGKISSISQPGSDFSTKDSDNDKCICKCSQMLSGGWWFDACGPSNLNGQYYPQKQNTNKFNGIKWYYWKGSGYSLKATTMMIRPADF
Chain of Angiopoietin-1 (Ang1) (Q15389 16-498, one chain of several): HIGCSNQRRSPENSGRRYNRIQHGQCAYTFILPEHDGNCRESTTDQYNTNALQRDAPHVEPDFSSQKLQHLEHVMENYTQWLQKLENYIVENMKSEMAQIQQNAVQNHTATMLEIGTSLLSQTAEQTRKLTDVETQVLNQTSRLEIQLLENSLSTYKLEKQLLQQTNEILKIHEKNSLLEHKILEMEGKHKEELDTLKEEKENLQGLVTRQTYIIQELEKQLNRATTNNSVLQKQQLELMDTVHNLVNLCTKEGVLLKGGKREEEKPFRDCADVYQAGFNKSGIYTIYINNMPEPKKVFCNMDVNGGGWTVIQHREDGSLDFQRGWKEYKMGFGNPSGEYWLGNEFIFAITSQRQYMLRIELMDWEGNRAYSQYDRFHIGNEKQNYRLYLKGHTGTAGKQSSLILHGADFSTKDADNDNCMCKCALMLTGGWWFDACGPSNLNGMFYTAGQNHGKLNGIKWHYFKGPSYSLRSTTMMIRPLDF

B1: AMSB103 (ssRNA)
RNA: CGCUAGAUGGCUAACACUAUUGUGGAGAUGCACUAGCGCGCAUAGAUAAGCCAACAAACGUACAUUCUCUGUUAGUAUUUUCUGCG
modifications: 2'-F all positions
Consider B1, for which the IC50 in the data set with Angiopoietin-2 (Ang2) [1] is < 0.1 nM. The Kd is 0.039 nM in [2] (label: 5'-biotin) and 0.029 nM with Angiopoietin-2 (Ang2) [3] (label: 5'-biotin).
In the case of CGCAUAGAUAAGCCAACAAACGUACAUUCUCUGUUAGUAUUUUCUGCG (ssRNA, 2'-F all positions) [AMS0526], the binding result in the data set with Angiopoietin-1 (Ang1) is “no binding”. Also, the equilibrium dissociation constant (Kd) is < 0.1 nM with Angiopoietin-2 (Ang2) [4] and 0.032 nM with Angiopoietin-2 (Ang2) [5]. In the data set with Angiopoietin-2 (Ang2) [6], this molecule had a 50% inhibitory concentration (IC50) of 0.0839 nM.
On to CGCUAGAUGGCUAACACUAUUGUGGAGAUGCACUAGCG (ssRNA, 2'-F all positions) [AMS0427], for which the figures for the dissociation constant (Kd) in [7] and in [8] were 0.045 nM and 0.091 nM, respectively. Further, the concentration for half-maximal inhibition (IC50) in data set [9] and in data set [10] was ~0.1 nM in each case.

B2: AMSB106 (ssRNA)
RNA: CGCAUAGAUAAGCCAACAAACGUACAUUCUCUGUUAGUAUUUUCUGCGCGCUAGAUGGCUAACACUAUUGUGGAGAUGCACUAGCG
modifications: 2'-F all positions
Take B2: the Kd in data set [2] (label: biotin) turned out to be 0.043 nM; with Angiopoietin-2 (Ang2) [3] (label: biotin), 0.031 nM.

B3: AMSB104 (ssRNA)
RNA: CGCAUAGAUAAGCCAACAAACGUACAUUCUCUGUUAGUAUUUUCUGCGUUUCGCUAGAUGGCUAACACGUAUAUUUGUGGAGAUGCACUAGCG
modifications: 2'-F all positions
Turning to B3, the figures for the dissociation constant (Kd) (in data set [2] (label: biotin); in the data set with Angiopoietin-2 (Ang2) [3] (label: biotin)) were 0.087 nM and 0.159 nM, respectively.
In the case of CGUGGAGAUGCAUUCUGUCGAAGAUUGGCUAACACG (ssRNA, 2'-F all positions) [AMS0426], the Kd in data set [11] is 0.214 nM; in [12], 0.349 nM; in [13] it was 0.086 nM; in [14] it was 0.151 nM. For the same molecule, the IC50 in [9] and in data set [10] was ~0.1 nM in each case.

B4: AMSB105 (ssRNA)
RNA: CGCAUAGAUAAGCCAACAAACGUACAUUCUCUGUUAGUAUUUUCUGCGCGUGGAGAUGCAUUCUGUCGAAGAUUGGCUAACACG
modifications: 2'-F all positions
With B4, the Kd in data set [2] (label: biotin) amounted to 0.123 nM; in the data set with Angiopoietin-2 (Ang2) [3] (label: biotin), 0.052 nM.

(Values after patent US20220073922, “Aptamers and use thereof” (Aptitude Medical Systems, Inc., published 2022).)
